Reference: US20240166703A1, “ANTI-INFLAMMATORY PEPTIDE AND METHOD OF USE THEREOF” (The Regents of the University of California, priority 2021, published 2024)

Target: T1, polyubiquitin-dependent second interaction between NEMO and IKK2 (Homo sapiens, UniProt O14920)
T1 construct: proteins of HEK293T cells expressing full length human IKK2 were extracted; expressed in transfected cells; host or cells: HEK293T whole cell lysate supplied HA-IKK2; GST-NEMO 241-419 was expressed in E. coli Rosetta (DE3)
T1 sequence (O14920 1-756): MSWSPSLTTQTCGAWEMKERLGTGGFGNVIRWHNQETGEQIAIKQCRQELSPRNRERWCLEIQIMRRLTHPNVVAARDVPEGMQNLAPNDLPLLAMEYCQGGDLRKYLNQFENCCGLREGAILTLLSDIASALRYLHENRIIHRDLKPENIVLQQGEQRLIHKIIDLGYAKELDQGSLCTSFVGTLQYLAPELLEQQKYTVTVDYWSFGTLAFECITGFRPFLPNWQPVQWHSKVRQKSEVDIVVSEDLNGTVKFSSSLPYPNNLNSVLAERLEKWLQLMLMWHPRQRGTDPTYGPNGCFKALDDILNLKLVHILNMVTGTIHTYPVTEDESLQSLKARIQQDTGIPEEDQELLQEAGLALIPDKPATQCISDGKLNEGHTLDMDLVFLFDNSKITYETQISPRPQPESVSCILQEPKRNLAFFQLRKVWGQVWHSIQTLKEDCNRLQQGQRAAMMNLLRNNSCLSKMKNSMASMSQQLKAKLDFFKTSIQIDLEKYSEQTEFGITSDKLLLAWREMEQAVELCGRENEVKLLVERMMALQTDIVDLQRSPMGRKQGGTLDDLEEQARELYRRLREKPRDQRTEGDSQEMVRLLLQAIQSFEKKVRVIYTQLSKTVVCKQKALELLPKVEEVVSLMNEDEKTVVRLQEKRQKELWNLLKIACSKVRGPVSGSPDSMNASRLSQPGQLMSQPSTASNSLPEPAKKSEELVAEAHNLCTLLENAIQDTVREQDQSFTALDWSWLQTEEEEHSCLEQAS
Assay: Peptide in vitro GST pull-down from HA-IKK2-transfected HEK293T whole cell lysates
Assay type: binding
Conditions: peptide 200-25 μM
Procedure: Proteins of HEK293T cells transfected with full length human IKK2 or mutants were extracted using RIPA buffer. After centrifugation at 16,000×g for 20 minutes, the supernatants were adjusted to the binding buffer (containing 1.5 mU Hexokinase) and incubated on a rotating platform for 1 hour at 4° C. These whole-cell extracts were then incubated with E. coli-expressed GST-fusion NEMO in the absence or presence of Ub4 on a rotating platform for 2 hours at 4° C. The beads were centrifuged at 1,000×g for 2 minutes and washed four times in binding buffer. Proteins bound to beads were resuspended in SDS loading buffer, resolved by SDS-PAGE, and analyzed by western blot.
For peptide in vitro pull-down assay, proteins of HEK293T cells expressing full length human IKK2 were extracted using the same lysis buffer described above. Whole cell lysates were mixed with E. coli-expressed GST-NEMO with or without NEMO^ActPep or mNEMO^ActPep at different concentrations in the absence of presence of Ub4 and incubated on a rotating platform for 2 hours at 4° C. The beads were then washed four times in the binding buffer. Proteins bound to beads were resuspended in SDS-PAGE loading buffer, separated by SDS-PAGE, and analyzed by western blot. […]

Substance: TAT-NEMO^ActPep: HIV-1 TAT fused flexibly to human NEMO amino acids 375-391; cell permeable version of NEMO activation peptide (SEQ ID NO 2) (YGRKKRRQRRRGGLSSPLALPSQRRSPPEE)
- HA-IKK2 pulled down by GST-NEMO^241-419 in the presence of Ub4 (NEMO:IKK2 second interaction, western blot): loss of this interaction was observed with increasing concentrations
